Measured values published in article doi:10.1101/2023.08.03.551877 (bioRxiv, 2023).

B1: Rpd3 (enzyme)
chain: MVYEATPFDPITVKPSDKRRVAYFYDADVGNYAYGAGHPMKPHRIRMAHSLIMNYGLYKKMEIYRAKPATKQEMCQFHTDEYIDFLSRVTPDNLEMFKRESVKFNVGDDCPVFDGLYEYCSISGGGSMEGAARLNRGKCDVAVNYAGGLHHAKKSEASGFCYLNDIVLGIIELLRYHPRVLYIDIDVHHGDGVEEAFYTTDRVMTCSFHKYGEFFPGTGELRDIGVGAGKNYAVNVPLRDGIDDATYRSVFEPVIKKIMEWYQPSAVVLQCGGDSLSGDRLGCFNLSMEGHANCVNYVKSFGIPMMVVGGGGYTMRNVARTWCFETGLLNNVVLDKDLPYNEYYEYYGPDYKLSVRPSNMFNVNTPEYLDKVMTNIFANLENTKYAPSVQLNHTPRDAEDLGDVEEDSAEAKDTKGGSQYARDLHVEHDNEFY
B2: Rco1 (natural protein)
chain: MDTSKKDTTRSPSHSNSSSPSSSSLSSSSSKEKKRPKRLSSQNVNYDLKRRKIITSEGIERSFKNEHSNLAVEDNIPEEEPKELLEKDSKGNIIKLNEPSTISEDSKVSVTGLPLNKGPSEKIKRESLWNYRKNLGGQSNNSEMTLVPSKRFTQVPKNFQDLNRNDLKTFLTENMTEESNIRSTIGWNGDIINRTRDREPESDRDNKKLSNIRTKIILSTNATYDSKSKLFGQNSIKSTSNASEKIFRDKNNSTIDFENEDFCSACNQSGSFLCCDTCPKSFHFLCLDPPIDPNNLPKGDWHCNECKFKIFINNSMATLKKIESNFIKQNNNVKIFAKLLFNIDSHNPKQFQLPNYIKETFPAVKTGSRGQYSDENDKIPLTDRQLFNTSYGQSITKLDSYNPDTHIDSNSGKFLICYKCNQTRLGSWSHPENSRLIMTCDYCQTPWHLDCVPRASFKNLGSKWKCPLHSPTKVYKKIHHCQEDNSVNYKVWKKQRLINKKNQLYYEPLQKIGYQNNGNIQIIPTTSHTDYDFNQDFKITQIDENSIKYDFFDKIYKSKMVQKRKLFQFQESLIDKLVSNGSQNGNSEDNMVKDIASLIYFQVSNNDKSSNNKSASKSNNLRKLWDLKELTNVVVPNELDSIQFNDFSSDEIKHLLYLKKIIESKPKEELLKFLNIENPENQSE
B3: Eaf3 (natural protein)
chain: MVDLEQEFALGGRCLAFHGPLMYEAKILKIWDPSSKMYTSIPNDKPGGSSQATKEIKPQKLGEDESIPEEIINGKCFFIHYQGWKSSWDEWVGYDRIRAYNEENIAMKKRLANEAKEAKKSLLEQQKKKKLSTSLGGPSNGGKRKGDSRSNASISKSTSQSFLTSSVSGRKSGRSSANSLHPGSSLRSSSDQNGNDDRRRSSSLSPNMLHHIAGYPTPKISLQIPIKLKSVLVDDWEYVTKDKKICRLPADVTVEMVLNKYEHEVSQELESPGSQSQLSEYCAGLKLYFDKCLGNMLLYRLERLQYDELLKKSSKDQKPLVPIRIYGAIHLLRLISVLPELISSTTMDLQSCQLLIKQTEDFLVWLLMHVDEYFNDKDPNRSDDALYVNTSSQYEGVALGM
B4: Ume1 (natural protein)
chain: MSTLDIAEDNKIKNEEFKIWKKSIPSLYQHISSLKPIFGSGVDESPSTLRSIVFTNDSSCNKSKGVLSVPLLYSQGSEIFEVDCIVPLGLHYKKPESISEPLVQPDYTMESQKVEQTVLIPKWEFKGETIAKMIYVDNSEINVKVIALSTNGSLAWFREGVKSPVYTMMEPSTSLSSASSGNQNKPCVDFAISNDSKTLTVTKEKHLDNENATIKLIDNSGKIGEVLRTIPVPGIKNIQEIKFLNNQIFATCSDDGIIRFWGNEIGKKPLWILNDSLDGKTTCFAASPFVDTLFMTGTSGGALKVWDIRAVIALGDADAELNINQGHNKVNELFKVHHFYSEQVSKIEFSSISPMEVVTIGGLGNVYHWNFEPVFAIYNEIHEDFQGIISDELEAESMAFYHTEGCRREIGENNKVNTVAYHKYIEDLVATVDSDGLLTVYKPFTGKVLDGSREVGAAKS

Columns and labels:
Experiment in all cases: cryo-EM structure
[1] = biological target: Sin3 (S. cerevisiae, UniProt P22579 1-1536)
Sequence of Sin3 (P22579 whole entry): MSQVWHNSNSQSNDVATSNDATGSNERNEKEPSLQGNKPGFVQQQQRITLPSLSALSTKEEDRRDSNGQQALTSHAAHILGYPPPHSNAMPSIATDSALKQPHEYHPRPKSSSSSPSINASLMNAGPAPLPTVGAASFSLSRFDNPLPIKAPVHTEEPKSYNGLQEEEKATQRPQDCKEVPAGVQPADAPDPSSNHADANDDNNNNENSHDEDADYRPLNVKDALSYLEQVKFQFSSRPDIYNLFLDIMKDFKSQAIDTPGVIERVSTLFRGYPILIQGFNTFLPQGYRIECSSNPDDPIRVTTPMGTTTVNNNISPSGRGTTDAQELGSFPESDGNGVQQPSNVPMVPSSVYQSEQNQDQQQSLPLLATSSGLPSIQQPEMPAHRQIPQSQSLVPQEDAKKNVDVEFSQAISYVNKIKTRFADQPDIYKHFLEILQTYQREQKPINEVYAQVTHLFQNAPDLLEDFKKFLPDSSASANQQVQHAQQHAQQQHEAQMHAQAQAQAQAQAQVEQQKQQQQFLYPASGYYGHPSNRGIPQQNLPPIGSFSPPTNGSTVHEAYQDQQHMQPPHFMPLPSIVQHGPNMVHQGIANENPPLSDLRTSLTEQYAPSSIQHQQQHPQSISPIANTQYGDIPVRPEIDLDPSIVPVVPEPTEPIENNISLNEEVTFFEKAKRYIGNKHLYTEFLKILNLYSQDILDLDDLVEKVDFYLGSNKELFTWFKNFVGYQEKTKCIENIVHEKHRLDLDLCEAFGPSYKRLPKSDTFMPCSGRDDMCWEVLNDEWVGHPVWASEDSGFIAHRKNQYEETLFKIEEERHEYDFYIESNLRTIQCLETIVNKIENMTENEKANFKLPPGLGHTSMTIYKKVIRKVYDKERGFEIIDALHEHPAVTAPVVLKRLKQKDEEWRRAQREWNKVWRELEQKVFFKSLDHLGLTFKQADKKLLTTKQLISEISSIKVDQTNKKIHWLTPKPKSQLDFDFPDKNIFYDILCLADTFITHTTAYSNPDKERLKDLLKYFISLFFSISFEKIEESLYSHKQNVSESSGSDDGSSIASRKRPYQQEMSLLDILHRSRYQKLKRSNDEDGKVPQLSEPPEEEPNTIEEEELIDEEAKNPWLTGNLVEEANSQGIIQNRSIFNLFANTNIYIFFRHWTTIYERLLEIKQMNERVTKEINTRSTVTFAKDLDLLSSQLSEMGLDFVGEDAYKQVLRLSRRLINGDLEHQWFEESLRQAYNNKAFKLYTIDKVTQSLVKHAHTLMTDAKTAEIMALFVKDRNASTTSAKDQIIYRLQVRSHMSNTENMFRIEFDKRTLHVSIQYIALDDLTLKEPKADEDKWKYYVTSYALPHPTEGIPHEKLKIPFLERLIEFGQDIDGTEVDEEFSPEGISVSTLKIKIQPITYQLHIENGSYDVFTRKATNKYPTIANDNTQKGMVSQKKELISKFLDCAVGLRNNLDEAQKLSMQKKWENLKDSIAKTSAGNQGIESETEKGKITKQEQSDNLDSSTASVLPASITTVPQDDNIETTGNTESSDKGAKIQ

[2] = biological target: B2
[3] = biological target: the molecule itself
[4] = biological target: B4

Binder: B1
- binding result [1]: binds
- binding result [2]: binds

Binder: B2
- binding result [1]: binds
- binding result [3]: binds

Binder: B3
- binding result [2]: binds
- binding result [4]: binds

Binder: B4
- binding result [1]: binds
